The source of these data is PMC2711614 (The Journal of Cell Biology, 2009).

T1: His6-Hof1-C (amino acids 341–669) (S. cerevisiae, UniProt Q05080 341-669)
T1 sequence (looked up): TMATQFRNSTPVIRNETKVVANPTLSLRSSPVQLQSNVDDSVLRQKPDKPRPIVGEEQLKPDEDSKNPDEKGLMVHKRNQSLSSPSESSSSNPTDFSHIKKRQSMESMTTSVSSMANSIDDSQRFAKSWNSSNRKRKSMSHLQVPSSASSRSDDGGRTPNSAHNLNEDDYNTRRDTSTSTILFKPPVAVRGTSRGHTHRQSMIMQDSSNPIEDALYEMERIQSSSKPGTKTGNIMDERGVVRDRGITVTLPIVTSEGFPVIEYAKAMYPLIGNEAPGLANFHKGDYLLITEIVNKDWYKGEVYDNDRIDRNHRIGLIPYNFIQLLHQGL

B1: His6-tagged Cyk3 SH3 domain fragment (amino acids 1–70) (domain or fragment, S. cerevisiae, UniProt Q07533 1-70, looked up)
chain: MATNLTSLKPPFKVKARYGWSGQTKGDLGFLEGDIMEVTRIAGSWFYGKLLRNKKCSGYFPHNFVILLEE
B2: GST-Inn1-tail (amino acids 131–409), wild type (domain or fragment, S. cerevisiae, UniProt P53901 131-409, looked up)
chain: LTFTPKVPRLNRDDLNKEMDRLDSSMAMRPIPPLPTESEYDYVHGSTMRQITPQCVSTSHEDKDEGQPYRNGNVFSMSSKSDTAVLANSNDPIILPPTFSASMGTTSTLETNDTAISNTSNTKFHFANLRKLKEKINIFKNPDSSTNNCQNESNKVDIEALQKAIGVTSLSYDEDDDDDDENDAFYSSSHRVSHNYNQPPLPPIPTRDDMSNYSSSRNTPLVRRDRPSRLDSSSPNSHPHPSGLNSPKLPPLPTTSNSNFNSRKNSMSPTRKRPPPRLS

Test [1] deals with B2. Kind of test: pull-down.
In test [2] the target is T1, His6-Hof1-C (amino acids 341–669). The experiment in a line: pull-down.

On to B1, for which the binding result in test [1] is “binds”.

As for B2, the binding result in test [2] is “binds”.
